The target in this test is T1, VTN (vitronectin) (Homo sapiens (Human), UniProt P04004).
T1 chain: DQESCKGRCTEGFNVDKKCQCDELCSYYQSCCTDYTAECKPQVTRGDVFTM
Nature of the test: SPR; Mg2+/Ca2+/Mn2+ buffer, 37 °C 1 mM MgCl2, 1 mM CaCl2, 2 mM MnCl2 in SPR buffer. (Surface plasmon resonance follows binding to a sensor surface in real time, without labels.)

B1: integrin αvβ3 (rhαvβ3) (protein)
chain 1: FNLDVDSPAEYSGPEGSYFGFAVDFFVPSASSRMFLLVGAPKANTTQPGIVEGGQVLKCDWSSTRRCQPIEFDATGNRDYAKDDPLEFKSHQWFGASVRSKQDKILACAPLYHWRTEMKQEREPVGTCFLQDGTKTVEYAPCRSQDIDADGQGFCQGGFSIDFTKADRVLLGGPGSFYWQGQLISDQVAEIVSKYDPNVYSIKYNNQLATRTAQAIFDDSYLGYSVAVGDFNGDGIDDFVSGVPRAARTLGMVYIYDGKNMSSLYNFTGEQMAAYFGFSVAATDINGDDYADVFIGAPLFMDRGSDGKLQEVGQVSVSLQRASGDFQTTKLNGFEVFARFGSAIAPLGDLDQDGFNDIAIAAPYGGEDKKGIVYIFNGRSTGLNAVPSQILEGQWAARSMPPSFGYSMKGATDIDKNGYPDLIVGAFGVDRAILYRARPVITVNAGLEVYPS
chain 2: GPNICTTRGVSSCQQCLAVSPMCAWCSDEALPLGSPRCDLKENLLKDNCAPESIEFPVSEARVLEDRPLSDKGSGDSSQVTQVSPQRIALRLRPDDSKNFSIQVRQVEDYPVDIYYLMDLSYSMKDDLWSIQNLGTKLATQMRKLTSNLRIGFGAFVDKPVSPYMYISPPEALENPCYDMKTTCLPMFGYKHVLTLTDQVTRFNEEVKKQSVSRNRDAPEGGFDAIMQATVCDEKIGWRNDASHLLVFTTDAKTHIALDGRLAGIVQPNDGQCHVGSDNHYSASTTMDYPSLGLMTEKLSQKNINLIFAVTENVVNLYQNYSELIPGTTVGVLSMDSSNVLQLIVDAYGKIRSKVELEVRDLPEELSLSFNATCLNNEVIPGLKSCMGLKIGDTVSFSIEAKVRGCPQEKEKSFTIKPVGFKDSLIVQVTFDCDCA
With B1, binding was characterised by a dissociation constant (Kd) of 997 nM.

The values are drawn from paper PMC9800282 (2022).
